Experimental data reported in PMC6624373, “Lamin A molecular compression and sliding as mechanisms behind nucleoskeleton elasticity” (Nature Communications, 2019).
Positions count from the first letter of the chain named.

B1: lamin A R25G (natural protein, human, UniProt P02545 1-646, looked up)
chain: METPSQRRATRSGAQASSTPLSPTGITRLQEKEDLQELNDRLAVYIDRVRSLETENAGLRLRITESEEVVSREVSGIKAAYEAELGDARKTLDSVAKERARLQLELSKVREEFKELKARNTKKEGDLIAAQARLKDLEALLNSKEAALSTALSEKRTLEGELHDLRGQVAKLEAALGEAKKQLQDEMLRRVDAENRLQTMKEELDFQKNIYSEELRETKRRHETRLVEIDNGKQREFESRLADALQELRAQHEDQVEQYKKELEKTYSAKLDNARQSAERNSNLVGAAHEELQQSRIRIDSLSAQLSQLQKQLAAKEAKLRDLEDSLARERDTSRRLLAEKEREMAEMRARMQQQLDEYQELLDIKLALDMEIHAYRKLLEGEEERLRLSPSPTSQRSRGRASSHSSQTQGGGSVTKKRKLESTESRSSFSQHARTSGRVAVEEVDEEGKFVRLRNKSNEDQSMGNWQIKRQNGDDPLLTYRFPPKFTLKAGQVVTIWAAGAGATHSPPTDLVWKAQNTWGCGNSLRTALINSTGEEVAMRKLVRSVTVVEDDEDEDGDDLLHHHHGSHCSSSGDPAEYNLRSRTVLCGTCGQPADKASASGSGAQVGGPISSGSSASSVTVTRSYRSVGGSGGGSFGDNLVTRSY
notes: lamin A, human; pre-lamin A without its last 18 amino acids, as m1; mutation associated with EDMD/LGMD1B; source: E. coli (pET28b); purification of the mutants not separately stated
B2: lamin A E33G (natural protein, human, UniProt P02545 1-646, looked up)
chain: B1 chain with G25R, E33G
notes: as for B1
B3: lamin A E65G (natural protein, human, UniProt P02545 1-646, looked up)
chain: B1 chain with G25R, E65G
notes: as for B1
B4: lamin A E82K (natural protein, human, UniProt P02545 1-646, looked up)
chain: B1 chain with G25R, E82K
notes: lamin A, human; pre-lamin A without its last 18 amino acids, as m1; mutation associated with DCM-CD; source: E. coli (pET28b); purification of the mutants not separately stated
B5: lamin A R388C (natural protein, human, UniProt P02545 1-646, looked up)
chain: B1 chain with G25R, R388C
notes: lamin A, human; pre-lamin A without its last 18 amino acids, as m1; mutation associated with CMD; source: E. coli (pET28b); purification of the mutants not separately stated
B6: lamin A R388E (natural protein, human, UniProt P02545 1-646, looked up)
chain: B1 chain with G25R, R388E
notes: lamin A, human; pre-lamin A without its last 18 amino acids, as m1; de novo mutant; source: E. coli (pET28b); purification of the mutants not separately stated
B7: lamin A R401C (natural protein, human, UniProt P02545 1-646, looked up)
chain: B1 chain with G25R, R401C
notes: lamin A, human; pre-lamin A without its last 18 amino acids, as m1; mutation associated with EDMD; source: E. coli (pET28b); purification of the mutants not separately stated
B8: lamin A R401E (natural protein, human, UniProt P02545 1-646, looked up)
chain: B1 chain with G25R, R401E
notes: as for B6

Target: the molecule itself
Assay: rotary metal shadowing EM; in vitro assembly assay: after dialysis into 25 mM MES, 150 mM NaCl, 1 mM DTT, 1 mM EGTA pH 6.5, 30% glycerol; dimers scored as singular or incorporated into head-to-tail oligomers

Stoichiometry N, 2:
B1, B2, B3, B4, B5, B6, B7, B8
